# Data published in patent publication US20230002480A1.
# Legend:
# Experiment in all cases: cell-based or functional assay
# [1] = biological target: HIV-1 Env of pseudovirus QH0692.42 (HIV-1)
# [2] = biological target: HIV-1 Env of pseudovirus CNE19 (HIV-1)
# [3] = biological target: HIV-1 Env of pseudovirus Ce0682_E4 (HIV-1)
# [4] = biological target: HIV-1 Env of pseudovirus CNE17 (HIV-1)
# [5] = biological target: HIV-1 Env of pseudovirus Q461.e2 (HIV-1)
# [6] = biological target: HIV-1 Env of pseudovirus CNE58 (HIV-1)
# [7] = biological target: HIV-1 Env of pseudovirus Q769.d22 (HIV-1)
# [8] = biological target: HIV-1 Env of pseudovirus 1054_07_TC4_1499 (HIV-1)
# [9] = biological target: HIV-1 Env of pseudovirus Ce1086_B2 (HIV-1)
# [10] = biological target: HIV-1 Env of pseudovirus Q259.d2.17 (HIV-1)
# [11] = biological target: HIV-1 Env of pseudovirus Ce2010_F5 (HIV-1)
# [12] = biological target: HIV-1 Env of pseudovirus Ce2060_G9 (HIV-1)
# [13] = biological target: HIV-1 Env of pseudovirus HIV-16845-2.22 (HIV-1)
# [14] = biological target: HIV-1 Env of pseudovirus MS208.A1 (HIV-1)
# [15] = biological target: HIV-1 Env of pseudovirus 6535.3 (HIV-1)
# [16] = biological target: HIV-1 Env of pseudovirus Du156.12 (HIV-1)
# [17] = biological target: HIV-1 Env of pseudovirus Q842.d12 (HIV-1)
# [18] = biological target: HIV-1 Env of pseudovirus ZM109F.PB4 (HIV-1)
# [19] = biological target: HIV-1 Env of pseudovirus PVO.4 (HIV-1)
# [20] = biological target: HIV-1 Env of pseudovirus Ce1172_H1 (HIV-1)
# [21] = biological target: HIV-1 Env of pseudovirus ZM249M.PL1 (HIV-1)
# [22] = biological target: HIV-1 Env of pseudovirus WEAU_d15_410_787 (HIV-1)
# [23] = biological target: HIV-1 Env of pseudovirus ZM247v1(Rev-) (HIV-1)
substance,measurement,setting,value
N49P9 (antibody),IC50,[1],0.352 µg/mL
same,IC80,[1],1.21 µg/mL
same,MPI,[1],100
same,IC50,[2],0.031 µg/mL
same,IC80,[2],0.136 µg/mL
same,MPI,[2],100
same,IC50,[3],0.049 µg/mL
same,IC80,[3],0.185 µg/mL
same,MPI,[3],100
same,IC50,[4],0.364 µg/mL
same,IC80,[4],1.7 µg/mL
same,MPI,[4],100
same,IC50,[5],0.271 µg/mL
same,IC80,[5],0.953 µg/mL
same,MPI,[5],100
same,IC50,[6],0.03 µg/mL
same,IC80,[6],0.081 µg/mL
same,MPI,[6],100
same,IC50,[7],0.036 µg/mL
same,IC80,[7],0.123 µg/mL
same,MPI,[7],100
same,IC50,[8],0.885 µg/mL
same,IC80,[8],2.44 µg/mL
same,MPI,[8],100
same,IC50,[9],0.341 µg/mL
same,IC80,[9],1.69 µg/mL
same,MPI,[9],97
same,IC50,[10],0.807 µg/mL
same,IC80,[10],> 50 µg/mL
same,MPI,[10],74
same,IC50,[11],0.089 µg/mL
same,IC80,[11],0.271 µg/mL
same,MPI,[11],100
same,IC50,[12],0.419 µg/mL
same,IC80,[12],2.19 µg/mL
same,MPI,[12],100
same,IC50,[13],1.09 µg/mL
same,IC80,[13],9.96 µg/mL
same,MPI,[13],98
same,IC50,[14],0.08 µg/mL
same,IC80,[14],0.294 µg/mL
same,MPI,[14],100
same,IC50,[15],0.552 µg/mL
same,IC80,[15],2.26 µg/mL
same,MPI,[15],100
same,IC50,[16],0.043 µg/mL
same,IC80,[16],0.13 µg/mL
same,MPI,[16],100
same,IC50,[17],0.019 µg/mL
same,IC80,[17],0.057 µg/mL
same,MPI,[17],100
same,IC50,[18],0.075 µg/mL
same,IC80,[18],0.349 µg/mL
same,MPI,[18],99
same,IC50,[19],0.179 µg/mL
same,IC80,[19],0.628 µg/mL
same,MPI,[19],100
same,IC50,[20],8.8 µg/mL
same,IC80,[20],> 50 µg/mL
same,MPI,[20],70
same,IC50,[21],0.152 µg/mL
same,IC80,[21],0.801 µg/mL
same,MPI,[21],97
same,IC50,[22],0.063 µg/mL
same,IC80,[22],0.162 µg/mL
same,MPI,[22],100
same,IC50,[23],0.622 µg/mL
same,IC80,[23],3.3 µg/mL
same,MPI,[23],100
N49P9.1 (antibody),IC50,[1],0.107 µg/mL
same,IC80,[1],0.709 µg/mL
same,MPI,[1],100
same,IC50,[2],0.033 µg/mL
same,IC80,[2],0.146 µg/mL
same,MPI,[2],100
same,IC50,[3],0.076 µg/mL
same,IC80,[3],0.264 µg/mL
same,MPI,[3],100
same,IC50,[4],0.251 µg/mL
same,IC80,[4],1.23 µg/mL
same,MPI,[4],100
same,IC50,[5],0.363 µg/mL
same,IC80,[5],1.15 µg/mL
same,MPI,[5],100
same,IC50,[6],0.027 µg/mL
same,IC80,[6],0.074 µg/mL
same,MPI,[6],100
same,IC50,[7],0.039 µg/mL
same,IC80,[7],0.148 µg/mL
same,MPI,[7],100
same,IC50,[8],1.8 µg/mL
same,IC80,[8],7.2 µg/mL
same,MPI,[8],100
same,IC50,[9],0.814 µg/mL
same,IC80,[9],4.08 µg/mL
same,MPI,[9],96
same,IC50,[10],> 50 µg/mL
same,IC80,[10],> 50 µg/mL
same,MPI,[10],48
same,IC50,[11],0.12 µg/mL
same,IC80,[11],0.38 µg/mL
same,MPI,[11],100
same,IC50,[12],0.781 µg/mL
same,IC80,[12],3.54 µg/mL
same,MPI,[12],100
same,IC50,[13],2.13 µg/mL
same,IC80,[13],10.7 µg/mL
same,MPI,[13],98
same,IC50,[14],0.082 µg/mL
same,IC80,[14],0.248 µg/mL
same,MPI,[14],100
same,IC50,[15],0.232 µg/mL
same,IC80,[15],2.06 µg/mL
same,MPI,[15],100
same,IC50,[16],0.066 µg/mL
same,IC80,[16],0.252 µg/mL
same,MPI,[16],100
same,IC50,[17],0.027 µg/mL
same,IC80,[17],0.075 µg/mL
same,MPI,[17],100
same,IC50,[18],0.116 µg/mL
same,IC80,[18],0.497 µg/mL
same,MPI,[18],95
same,IC50,[19],0.181 µg/mL
same,IC80,[19],0.874 µg/mL
same,MPI,[19],100
same,IC50,[20],> 50 µg/mL
same,IC80,[20],> 50 µg/mL
same,MPI,[20],42
same,IC50,[21],0.206 µg/mL
same,IC80,[21],1.92 µg/mL
same,MPI,[21],95
same,IC50,[22],0.068 µg/mL
same,IC80,[22],0.253 µg/mL
same,MPI,[22],100
same,IC50,[23],1.88 µg/mL
same,IC80,[23],17.8 µg/mL
same,MPI,[23],87
